Target: T1, N3-2A, Modulator of β-cleavage of APP (MoBA)
T1 chain: DAVYYCGLKY

B1: purified β-secretase (protein)
chain: ETDEEPEEPGRRGSFVEMVDNLRGKSGQGYYVEMTVGSPPQTLNILVDTGSSNFAVGAAPHPFLHRYYQRQLSSTYRDLRKGVYVPYTQGKWEGELGTDLVSIPHGPNVTVRANIAAITESDKFFINGSNWEGILGLAYAEIARPDDSLEPFFDSLVKQTHVPNLFSLQLCGAGFPLNQSEVLASVGGSMIIGGIDHSLYTGSLWYTPIRREWYYEVIIVRVEINGQDLKMDCKEYNYDKSIVDSGTTNLRLPKKVFEAAVKSIKAASSTEKFPDGFWLGEQLVCWQAGTTPWNIFPVISLYLMGEVTNQSFRITILPQQYLRPVEDVATSQDDCYKFAISQSSTGTVMGAVIMEGFYVVFDRARKRIGFAVSACHVHDEFRTAAVEGPFVTLDMEDCGYNIPQTDESTLMT
activity of purified β-secretase on a fluorescent substrate (FRET assay): N3-2A did not inhibit the activity of purified β-secretase
